# According to the DeepSol protein solubility set:
# Test: soluble on expression in E. coli; label from the status in PepcDB or PDB records
row,Sequence,soluble on expression in E. coli
1,MVKCMKPGKAVILLQGRYTGKKAVIVKSFDDGTVEKKYGHCLVAGLKKYPSKVIRKDSAKKTAKKSRVKCFFKVINYQHVMPTRYTLDLDLKNVVSADAISSKDKKVTALKEAKAKFEERFKTGKNRWFFTKLRF,not soluble
2,MGRPRYLAYTRQIAMKSWRKAVVGTQATVGDAIAAIESGSIQIALVLDDQNRLLGVVTDGDVRRGLLRGIPLTGLATDIMNRVPVSAPATLSRDDRLHLMRQKSIKQLPLVDEGGHLVVVETLDELLEPRHYANPVLIMAGGLGERLGALTRDVPKPMLNVGGRPLLETIVRNVVQQGFRNIYISVNYKAETIKDYFADGAAFGANIQYVHETERLGTAGALGLFPAPPDLPMIVTNGDILTTINYGALLDFHNGTPAEATMAVREHKVHVPYGVVSTSDGFLQAIREKPTESWFVSAGIYVIGSSVFGHVAPGVSIDMPTVLERVIAGKGRVAVYPIREYWLDIGRLEDFEQAHAEFHEVFPLEHHHHHH,soluble
3,MGSDKIHHHHHHMQQPLAYRMRPKTLKDVVGQQQLVGPGKIIARMVKAKRLSSMILYGPPGTGKTSIASAIAGSTKYAFRMLNAATDSKKQLQIVAEEAKMSGTVILLLDEIHRLDKTKQDFLLPHLESGRIILIGATTENPYISINPAIRSRTQIFQVFPLTDDDIQHAVERALADEKNGLGSYHVDLAPAAMHHLCTATNGDLRSALNGLELAVLSSSPADDGTIAISQQTIEECLQKKALSADKDGDAHYDVISAFQKSIRGSDVNAALHYLARLVEAGDLKSIMRRLMVIAYEDIGLANPAACAHTVAAVQAADQLGFPEARIPLADAVIELALSPKSNSGISAIDAALTTVRDGHFGDIPADIKDAHYQGAAKLGHGVGYDFPHDHPGDWVAQQYLPDAIKSAKYYEPKTNGRYETALAQQYEKLLKANERNR,not soluble
4,MANAASGMAVHDDCKLRFLELKAKRTHRFIVYKIEEKQKQVVVEKVGQPIQTYEEFAACLPADECRYAIYDFDFVTAENCQKSKIFFIAWCPDIAKVRSKMIYASSKDRFKRELDGIQVELQATDPTEMDLDVFRSRAN,soluble
5,MAHHHHHHMNPHPVEPRDQIAELLVESPLFSFNCAHFIAFKGFRETLHGHNYNVSLRLRGNIQGDGYVIDFSILKEKVRKVCKQLDHHFILPMYSDVLNIQEVNDNFKITCEDNSEYSFPKRDCVQIPIKHSSTEEIGLYILNQLIEEIDLPFLKTRSVNYMEVTVSESPSQKATVHRNI,soluble
6,MGSSHHHHHHSSGLVPRGSHMYLINQNGWIEVICGSMFSGKSEELIRRVRRTQFAKQHAIVFKPCIDNRYSEEDVVSHNGLKVKAVPVSASKDIFKHITEEMDVIAIDEVQFFDGDIVEVVQVLANRGYRVIVAGLDQDFRGLPFGQVPQLMAIAEHVTKLQAVCSACGSPASRTQRLIDGEPAAFDDPIILVGASESYEPRCRHCHAVPTKQR,soluble
7,MVDIVKRRDWEKKEKKKIAIERIDTLFTLAERVARYSPDLAKRYVELALEIQKKAKVKIPRKWKRRYCKRCHTFLIPGVNARVRLRTKRMPHVVITCLECGYIMRYPYLREVKQKRKKAT,soluble
8,MAHHHHHHMKAASAAAPAAQTKAAAEAKAATATTAASSLSLSLLQYGASLYEAHTHLPEAAVARLPLNRYADYLRHFGFSMERESRGAAAPGTTLALDCTSPNHKTQAPLDGRWGKRVETDTSYDPVEVAGWGLPEALRCEADQQCNAVGSLSDATEWSAIAKQLVHPFMSVTWRQTATQCTMKKACCVYMWLCSHMTLQVSVPGAEEDAKEDSGGVSTVGLPSAAKAASLARKANRPARKVKEVPTTLEPAAPPDPLLVALQTRRAPAPVLADVYMHMLTSVGVLCEVVVGQLKGAAPEEAFEWSWNMVTVDGRQYLVDVSAALSNGVLRSAASYSDVPSSVAVPEAGKGQRAGNAAGRGKAATPSQSSPPAGSGAVPCSESVQLLPVTPERLRREFFFFAHPTYFLASHFPADPAKALVRTAMRAVQWGVRPRLTPAFYYYGLQLASHKTHSTFAASGSPSYVSFVNHHASTTELCCALYMGTLGTLPEDLSQTAPLGAEWVWHQREESTSTDTFTLTVPQAGYYVVVIGARPIRADPYSAVFTVAGETAFTPVVSYEMRVGFTPSSSPVLPRQYLSPSICRLITPLCSQILPGKHTFCVMPSCSNVLAVAVVKFVAAAATRTLLSLLPFQPRSAAFEGDVDVRSGECVEVWVLYGAPDRNGQELSQRAAAAAPPKAAATPCRSPTPAAKFKAADKKKREASAEHQQQLSALESQLAHLTQALHKGEVFQRCVGGIEVRHFVSPAVVGVIQPQPMVEQEQSITLRRLAGVTDALLREAEEVVRRQPAPVGSYFGAVEAAAAKS,not soluble
9,HGPASRLLHRHIREQLKDLKEVSHESLVVGAVENAFQLMDEQMARERRGHQVEGGCCALVVIYLLGKVYVANAGDSRAIIVRNGEIIPMSREFTPETERQRLQLLGFLKPELLGSEFTHLEFPRRVLPKELGQRMLYRDQNMTGWAYKKIELEDLRFPLVCGEGKKARVMATIGVTRGLGDHSLKVCSSTLPIKPFLSCFPEVRVYDLTQYEHCPDDVLVLGTDGLWDVTTDCEVAATVDRVLSAYEPNDHSRYTALAQALVLGARGTPRDRGWRLPNNKLGSGDDISVFVIPLGGPGSYSVRASSPSPL,not soluble
10,MSSATASIKLSNGVEMPVIGLGTWQSSPAEVITAVKTAVKAGYRLIDTASVYQNEEAIGTAIKELLEEGVVKREELFITTKAWTHELAPGKLEGGLRESLKKLQLEYVDLYLAHMPAAFNDDMSEHIASPVEDVWRQFDAVYKAGLAKAVGVSNWNNDQISRALALGLTPVHNSQVELHLYFPQHDHVDFCKKHNISVTSYATLGSPGRVNFTLPTGQKLDWAPAPSDLQDQNVLALAEKTHKTPAQVLLRYALDRGCAILPKSIQENRIKENFEVFDFSLTEEDIAKLEESKNSQRLFLQDFMTGHPEDAFAAERK,soluble
11,MAHHHHHHMFMCRVHARARYLYILQNGSVEEMTALLTKLRAAVPSERLIIEHRPQNIGYAAAVNEGYRVALQKPHAEVPFIGVFNCDVYFERRYFGRYIPVVYKMLAPDAARIRALEEVVEQEERAARAAGRQTLRASVATTPGLSISMLLPDRIRYSSFAEQQDEFKGHVGMFYYETKSMCAFLVSRLALLVGGFLDENFYPAYFEDYDWQFRLANLGFKTFTGSSAQFGGFFHRMGGNIRVINKGPAGKSISYDMAAIRVERMLNAKPGIDYGETKWAWHREALVAMSATPFPQLGFIVPLDVWVLDAARHQLIIDIGTGRRPSVEMSNTYNVSLLSSLRRFALADGKDFWGSGIITTEPDWRK,not soluble
12,MKLSDMQLFRGLEEDDISSLLSCLNSVKRNYKKGEVILSEGSIIENIGIVLSGMAMISCNEIWGNTSILGSVAPGSVFAEVYACIPGQPMLVTVSAVEDTSVLFMNVGRVLTTCTNACPFHTNLARNLLTVCAHKSLQLSQRILHTSSKSIRGRLMSYFSECAKHAGSNSFLIPYNRQQLADYLNVDRSTMCNELSKMQKDGMIEYKKNRILLKD,not soluble
13,MANFMSKEAPFWKVKKLEEMSLSEWESLCDGCGLCCLHKVEDDDTGDIYATSVACRLLDSETCRCRNYVHRKSIVPDCIFLNLATIKTVRWLPENCAYRLIYEGKDLYWWHPLVSGNYQTVHQTQFSARGQIEIYEDELSSEEDYLQYITGILCEGR,not soluble
14,MRVVVLMGGRSSEREISLKTGKAVAKALRELGHEVYELDLDKELPCKLLEIKPDKVFIALHGRYGEDGTVQGLLEILDIPYTGSDTIASAVSIDKDFTKRIVKSLGINTPDWETFISEGDVLNTEWNKFPAVVKPVREGSSVGLKIVESLEELKEYALDLLKKTERVMVEEFVEGRDMTVGILKGEALPVVEIIPKKGVYDYECKYTKGMSEYRILKDEKLSKKLQEISLKISKFLSLKDFARIDFRVTKEGKIFFLEVNTIPGMTELSLLPMAAKEKGMDFKKLISIIIT,soluble
15,MEQLRGLYPPLAAYDSGWLDTGDGHRIYWELSGNPNGKPAVFIHGGPGGGISPHHRQLFDPERYKVLLFDQRGCGRSRPHASLDNNTTWHLVADIERLREMAGVEQWLVFGGSWGSTLALAYAQTHPERVSEMVLRGIFTLRKQRLHWYYQDGASRFFPEKWERVLSILSDDERKDVIAAYRQRLTSADPQVQLEAAKLWSVWEGETVTLLPSRESASFGEDDFALAFARIENHYFTHLGFLESDDQLLRNVPLIRHIPAVIVHGRYDMACQVQNAWDLAKAWPEAELHIVEGAGHSYDEPGILHQLMIATDRFAGK,soluble
16,MGSDKIHHHHHHMTDSTIDALNKKLDRLIEAVGRLAPPPVPETDLAEADCFVWQADPGYLEPVRKVNRVDIGLIRGVDRVRDILVDNTERFAAGFAANNVLLWGARGMGKSSLVKAVHAEINAKSKSQKAKSDLPLKLIEIHREDIDTLPKLMGLLKAAPFRVILFCDDLSFDHDDTSYKSLKAALEGGVEGRPANVIFYATSNRRHLLPRDMIDNERSTAINPSEAVEEKVSLSDRFGLWLGFHKCSQDEYLEMVNAYASHHGLDIDPEQLRAEALEWATTRGSRSGRVAWQFTQDLAGRLGKPLKD,not soluble
17,MIETPYYLIDKAKLTRNMERIAHVREKSGAKALLALKCFATWSVFDLMRDYMDGTTSSSLFEVRLGRERFGKETHAYSVAYGDNEIDEVVSHADKIIFNSISQLERFADKAAGIARGLRLNPQVSSSSFDLADPARPFSRLGEWDVPKVERVMDRINGFMIHNNCENKDFGLFDRMLGEIEERFGALIARVDWVSLGGGIHFTGDDYPVDAFSARLRAFSDRYGVQIYLEPGEASITKSTTLEVTVLDTLYNGKNLAIVDSSIEAHMLDLLIYRETAKVLPNEGSHSYMICGKSCLAGDVFGEFRFAEELKVGDRISFQDAAGYTMVKKNWFNGVKMPAIAIRELDGSVRTVREFTYADYEQSLS,soluble
18,GSHMKFTRVCDRRDVPEGEALKVESGGTSVAIFNVDGELFATQDRCTHGDWSLSDGGYLEGDVVECSLHMGKFCVRTGKVKSPPPCEALKIFPIRIEDNDVLVDFEAGYLAP,soluble
19,MFQLSVQDIHPGQQAGNKEEAIRQVAAALVSAGNVADGYVNGMLAREQQTSTFLGNGIAIPHGTTDTRDQVLKTGVQVFQFPQGVTWGEGQTAYVAIGIAASSDEHLGLLRQLTHVLSDDAVAAQLQSATTAEELRALLMGEKQSEALKLDNETLSLDVAASDLLTLQALNAARLKEVGAVDAAFVSHVINDTPLNLGQGVWLNDSAEGNLRSAVAVSRAANAFTRDEQPVSLLVTVAMADEQPTAVLNRLSKLLLDKKAEHLLKADAATVLALLTSDDAIAEDVLSAEFVVRNEHGLHARPGTMLVNTIKQFSSDITVTNLDGSGKPANGRSLMKVVALGVKKGHRLRFTAQGEDAQQALDAIGEAIAAGLGEGA,not soluble
20,MGQTLSEPVTKKESASCANENYLVGSSCMQGWRVDMEDAHTHLLSLPDDPKCAFFAVYDGHGGSKVSQYSGINLHKKVVAQKEFSEGNMKEAIEKGFLELDQQMRVDEETKDDVSGTTAVVVLIKEGDVYCGNAGDSRAVSSVVGEARPLSFDHKPSHETEARRIIAAGGWVEFNRVNGNLALSRALGDFAFKNCDTKPAEEQIVTAFPDVITDKLTPDHEFIVLACDGIWDVMTNQEVVDFVREKLAEKRDPQSICEELLTRCLAPDCQMGGLGCDNMTVVLVGLLHGQSPDTLFTKCARPAVFTGVNNEDGDQNQIQQDISRVINNFDGEQRVNAANQEEEEDDNEPAPANFQV,soluble
